These binders were tested against T1, soluble human FcRn complexed with β2-microglobulin (human, UniProt P61769 21-119, limits assumed) (assay: Biacore SPR, pH 7.0;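 further: test antibodies captured on a Protein L chip with human FcRn flowed over as analyte, KD obtained as the ratio of dissociation to association rate constants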).
T1 construct: also called hFcRn

| Kd | Binder |
| --- | --- |
| 228 nM | IgG1-F1310 (antibody, EU numbering; copies: 2 + 2) heavy: QVQLQESGPGLVKPSETLSLTCAVSGHSISHDHAWSWVRQPPGEGLEWIGFISYSGITNYNPSLQGRVTISRDNSKNTLYLQMNSLRAEDTAVYYCARSLARTTAMDYWGEGTLVTVSSASTKGPSVFPLAPSSKSTSGGTAALGCLVKDYFPEPVTVSWNSGALTSGVHTFPAVLQSSGLYSLSSVVTVPSSSLGTQTYICNVNHKPSNTKVDKKVEPKSCDKTHTCPPCPAPELRGGPKVFLFPPKPKDTLYISRTPEVTCVVVDVSHEDPEVKFNWYVDGVEVHNAKTKPREEQYNSTYRVVSVLTVLHQDWLNGKEYKCKVSNKALPAPIEKTISKAKGQPREPQVYTLPPSRDELTKNQVSLTCLVKGFYPSDIAVEWESNGQPENNYKTTPPVLDSDGSFFLYSKLTVDKSRWQQGNVFSCSVMHEALHYHVTLKLLSLSP light: not shown |
| 160 nM | IgG1-F1322 (antibody, EU numbering; copies: 2 + 2) heavy: QVQLQESGPGLVKPSETLSLTCAVSGHSISHDHAWSWVRQPPGEGLEWIGFISYSGITNYNPSLQGRVTISRDNSKNTLYLQMNSLRAEDTAVYYCARSLARTTAMDYWGEGTLVTVSSASTKGPSVFPLAPSSKSTSGGTAALGCLVKDYFPEPVTVSWNSGALTSGVHTFPAVLQSSGLYSLSSVVTVPSSSLGTQTYICNVNHKPSNTKVDKKVEPKSCDKTHTCPPCPAPELRGGPKVFLFPPKPKDTLYITRTPEVTCVVVDVSHEDPEVKFNWYVDGVEVHNAKTKPREEQYNSTYRVVSVLTVLHQDWLNGKEYKCKVSNKALPAPIEKTISKAKGQPREPQVYTLPPSRDELTKNQVSLTCLVKGFYPSDIAVEWESNGQPENNYKTTPPVLDSDGSFFLYSKLTVDKSRWQQGNVFSCSVMHEALDYHVTRKDLSLSP light: not shown |
| 227 nM | IgG1-F1314 (antibody, EU numbering; copies: 2 + 2) heavy: QVQLQESGPGLVKPSETLSLTCAVSGHSISHDHAWSWVRQPPGEGLEWIGFISYSGITNYNPSLQGRVTISRDNSKNTLYLQMNSLRAEDTAVYYCARSLARTTAMDYWGEGTLVTVSSASTKGPSVFPLAPSSKSTSGGTAALGCLVKDYFPEPVTVSWNSGALTSGVHTFPAVLQSSGLYSLSSVVTVPSSSLGTQTYICNVNHKPSNTKVDKKVEPKSCDKTHTCPPCPAPELRGGPKVFLFPPKPKDTLYISRTPEVTCVVVDVSHEDPEVKFNWYVDGVEVHNAKTKPREEQYNSTYRVVSVLTVLHQDWLNGKEYKCKVSNKALPAPIEKTISKAKGQPREPQVYTLPPSRDELTKNQVSLTCLVKGFYPSDIAVEWESNGQPENNYKTTPPVLDSDGSFFLYSKLTVDKSRWQQGNVFSCSVMHEALDYHVTLKLLSLSP light: not shown |
| 177 nM | IgG1-F1313 (antibody, EU numbering; copies: 2 + 2) heavy: QVQLQESGPGLVKPSETLSLTCAVSGHSISHDHAWSWVRQPPGEGLEWIGFISYSGITNYNPSLQGRVTISRDNSKNTLYLQMNSLRAEDTAVYYCARSLARTTAMDYWGEGTLVTVSSASTKGPSVFPLAPSSKSTSGGTAALGCLVKDYFPEPVTVSWNSGALTSGVHTFPAVLQSSGLYSLSSVVTVPSSSLGTQTYICNVNHKPSNTKVDKKVEPKSCDKTHTCPPCPAPELRGGPKVFLFPPKPKDTLYISRTPEVTCVVVDVSHEDPEVKFNWYVDGVEVHNAKTKPREEQYNSTYRVVSVLTVLHQDWLNGKEYKCKVSNKALPAPIEKTISKAKGQPREPQVYTLPPSRDELTKNQVSLTCLVKGFYPSDIAVEWESNGQPENNYKTTPPVLDSDGSFFLYSKLTVDKSRWQQGNVFSCSVMHEALDYHVTAKALSLSP light: not shown |
| 267 nM | IgG1-F1319 (antibody, EU numbering; copies: 2 + 2) heavy: QVQLQESGPGLVKPSETLSLTCAVSGHSISHDHAWSWVRQPPGEGLEWIGFISYSGITNYNPSLQGRVTISRDNSKNTLYLQMNSLRAEDTAVYYCARSLARTTAMDYWGEGTLVTVSSASTKGPSVFPLAPSSKSTSGGTAALGCLVKDYFPEPVTVSWNSGALTSGVHTFPAVLQSSGLYSLSSVVTVPSSSLGTQTYICNVNHKPSNTKVDKKVEPKSCDKTHTCPPCPAPELLGGPSVFLFPPKPKDTLYISRTPEVTCVVVDVSHEDPEVKFNWYVDGVEVHNAKTKPREEQYNSTYRVVSVLTVLHQDWLNGKEYKCKVSNKAYPAPIEKTISKAKGQPREPQVYTLPPSRDELTKNQVSLTCLVKGFYPSDIAVEWESNGQPENNYKTTPPVLDSDGSFFLYSKLTVDKSRWQQGNVFSCSVMHEALHYHYTQKSLSLSP light: not shown |
| 103 nM | IgG1-F1321 (antibody, EU numbering; copies: 2 + 2) heavy: QVQLQESGPGLVKPSETLSLTCAVSGHSISHDHAWSWVRQPPGEGLEWIGFISYSGITNYNPSLQGRVTISRDNSKNTLYLQMNSLRAEDTAVYYCARSLARTTAMDYWGEGTLVTVSSASTKGPSVFPLAPSSKSTSGGTAALGCLVKDYFPEPVTVSWNSGALTSGVHTFPAVLQSSGLYSLSSVVTVPSSSLGTQTYICNVNHKPSNTKVDKKVEPKSCDKTHTCPPCPAPELRGGPKVFLFPPKPKDTLYITRTPEVTCVVVDVSHEDPEVKFNWYVDGVEVHNAKTKPREEQYNSTYRVVSVLTVLHQDWLNGKEYKCKVSNKALPAPIEKTISKAKGQPREPQVYTLPPSRDELTKNQVSLTCLVKGFYPSDIAVEWESNGQPENNYKTTPPVLDSDGSFFLYSKLTVDKSRWQQGNVFSCSVMHEALHYHVTKKELSLSP light: not shown |
| 369 nM | IgG1-F1311 (antibody, EU numbering; copies: 2 + 2) heavy: QVQLQESGPGLVKPSETLSLTCAVSGHSISHDHAWSWVRQPPGEGLEWIGFISYSGITNYNPSLQGRVTISRDNSKNTLYLQMNSLRAEDTAVYYCARSLARTTAMDYWGEGTLVTVSSASTKGPSVFPLAPSSKSTSGGTAALGCLVKDYFPEPVTVSWNSGALTSGVHTFPAVLQSSGLYSLSSVVTVPSSSLGTQTYICNVNHKPSNTKVDKKVEPKSCDKTHTCPPCPAPELRGGPKVFLFPPKPKDTLYISRTPEVTCVVVDVSHEDPEVKFNWYVDGVEVHNAKTKPREEQYNSTYRVVSVLTVLHQDWLNGKEYKCKVSNKALPAPIEKTISKAKGQPREPQVYTLPPSRDELTKNQVSLTCLVKGFYPSDIAVEWESNGQPENNYKTTPPVLDSDGSFFLYSKLTVDKSRWQQGNAFACSVMHEALDYHVTQKSLSLSP light: not shown |
| 179 nM | IgG1-F1312 (antibody, EU numbering; copies: 2 + 2) heavy: QVQLQESGPGLVKPSETLSLTCAVSGHSISHDHAWSWVRQPPGEGLEWIGFISYSGITNYNPSLQGRVTISRDNSKNTLYLQMNSLRAEDTAVYYCARSLARTTAMDYWGEGTLVTVSSASTKGPSVFPLAPSSKSTSGGTAALGCLVKDYFPEPVTVSWNSGALTSGVHTFPAVLQSSGLYSLSSVVTVPSSSLGTQTYICNVNHKPSNTKVDKKVEPKSCDKTHTCPPCPAPELRGGPKVFLFPPKPKDTLYISRTPEVTCVVVDVSHEDPEVKFNWYVDGVEVHNAKTKPREEQYNSTYRVVSVLTVLHQDWLNGKEYKCKVSNKALPAPIEKTISKAKGQPREPQVYTLPPSRDELTKNQVSLTCLVKGFYPSDIAVEWESNGQPENNYKTTPPVLDSDGSFFLYSKLTVDKSRWQQGNLFLCSVMHEALDYHVTQKSLSLSP light: not shown |
| 122 nM | IgG1-F1320 (antibody, EU numbering; copies: 2 + 2) heavy: QVQLQESGPGLVKPSETLSLTCAVSGHSISHDHAWSWVRQPPGEGLEWIGFISYSGITNYNPSLQGRVTISRDNSKNTLYLQMNSLRAEDTAVYYCARSLARTTAMDYWGEGTLVTVSSASTKGPSVFPLAPSSKSTSGGTAALGCLVKDYFPEPVTVSWNSGALTSGVHTFPAVLQSSGLYSLSSVVTVPSSSLGTQTYICNVNHKPSNTKVDKKVEPKSCDKTHTCPPCPAPELRGGPKVFLFPPKPKDTLYITRTPEVTCVVVDVSHEDPEVKFNWYVDGVEVHNAKTKPREEQYNSTYRVVSVLTVLHQDWLNGKEYKCKVSNKALPAPIEKTISKAKGQPREPQVYTLPPSRDELTKNQVSLTCLVKGFYPSDIAVEWESNGQPENNYKTTPPVLDSDGSFFLYSKLTVDKSRWQQGNVFSCSVMHEALHYHVTRKDLSLSP light: not shown |

Reference: patent US20200199241A1 (Chugai, published 2020)
